T1: Ac-CWAcp-PPPALPPKKR.amide, C3G-derived peptide designed for attachment to an affinity column (N-terminal acetyl; ε-aminocaproic acid (Acp, B) at position 3; C-terminal amide; on the column the Cys side chain is coupled to iodoacetyl agarose (Sulfolink))
T1 construct: also called Acetyl-CWAcp-C3G; Ac-CWBPPPALPPKKR.amide
T1 peptide: CWPPPALPPKKR

T2: control peptide Ac-CAcpYGGFL.amide (YGGFL = leucine enkephalin) (not fully specified (residue 1); also: Cys side chain coupled to Sulfolink agarose)
T2 construct: also called Ac-CBYGGFL.amide; Leucine-Enkephalin agarose column
T2 peptide: Ac-CYGGFL-NH2


Key:
[1] = target: T1, Ac-CWAcp-PPPALPPKKR.amide, C3G-derived …; experiment: 19-member array on C3G peptide affinity column, MALDI MS readout
[2] = target: T2, control peptide Ac-CAcpYGGFL.amide …; experiment: nine-member array on control peptide column, A280
Method: The column was then washed with 0.5 M NaCl buffer to remove nonspecific binding proteins from the column. Specifically bound protein analogues were then eluted with 1 M hydroxylamine bufffer. Amounts of eluted peptide were monitored by UV absorbance at 280 nm. This procedure was used for both the C3G peptide column and for the control column loaded with Ac-C-AcpYGGFL.amide.
Affinity chromatography of the arrays of protein analogues was carried out as follows. […] After incubation at room temperature for a period of 6–8 hours the column was washed with 0.5 M NaCl in 0.1 M sodium phosphate, pH 7.0 buffer (6×1 mL) to remove any non-specifically bound proteins. The first two 1 mL fractions were collected and immediately mixed with an equal volume of 1 M NH_2OH, 20 mM NH_4HCO_3, pH 5.5 buffer to cleave any thioester-containing protein analogues. […] Samples of the eluted fractions were monitored by UV absorbance at 280 nm. This procedure was used for both the C3G peptide column and for the control column loaded with Ac-C-Acp-YGGFL.amide. To accommodate MALDI analysis, both the 0.5M NaCl wash and 1 M NH_2OH fractions were desalted on a low pressure, disposable C-18 column, washed with HPLC buffer A and peptide fragments eluted with 1.5 mL 60% acetonitrile in water, 0.1% TFA.

Row | binding result [1] | binding result [2] | Binder
1 | binds |  | c-Crk N-terminal SH3 domain (134-191) analogue, L^151P^152 replaced by Gly-[COS]-βAla (other, not fully specified; Gly-[COS]-βAla unit (-NH-CH2-CO-S-CH2-CH2-CO-) in place of L151-P152; backbone thioester, Positions count on murine c-Crk; X = -S-CH2CH2-CO- unit; Tested crude in a pooled array; also called LP) AEYVRALFDFNGNDEEDGXFKKGDILRIRDKPEEQWWNAEDSEGKRGMIPVPYVEKYR
2 | no binding |  | c-Crk N-terminal SH3 domain (134-191) analogue, dipeptide PF (152-153) replaced by Gly-[COS]-βAla (other, not fully specified; Gly-[COS]-βAla unit (-NH-CH2-CO-S-CH2-CH2-CO-) in place of P152-F153; backbone thioester, It is one of the 19 dipeptide positions within c-Crk(146-165); Positions count on murine c-Crk; X = -S-CH2CH2-CO- unit; Tested crude in a pooled array) AEYVRALFDFNGNDEEDLGXKKGDILRIRDKPEEQWWNAEDSEGKRGMIPVPYVEKYR
3 | no binding |  | c-Crk N-terminal SH3 domain (134-191) analogue, dipeptide FK (153-154) replaced by Gly-[COS]-βAla (other, not fully specified; Gly-[COS]-βAla unit (-NH-CH2-CO-S-CH2-CH2-CO-) in place of F153-K154; backbone thioester, It is one of the 19 dipeptide positions within c-Crk(146-165); Positions count on murine c-Crk; X = -S-CH2CH2-CO- unit; Tested crude in a pooled array) AEYVRALFDFNGNDEEDLPGXKGDILRIRDKPEEQWWNAEDSEGKRGMIPVPYVEKYR
4 | no binding |  | c-Crk N-terminal SH3 domain (134-191) analogue, dipeptide KG (155-156) replaced by Gly-[COS]-βAla (other, not fully specified; Gly-[COS]-βAla unit (-NH-CH2-CO-S-CH2-CH2-CO-) in place of K155-G156; backbone thioester, It is one of the 19 dipeptide positions within c-Crk(146-165); Positions count on murine c-Crk; X = -S-CH2CH2-CO- unit; Tested crude in a pooled array) AEYVRALFDFNGNDEEDLPFKGXDILRIRDKPEEQWWNAEDSEGKRGMIPVPYVEKYR
5 | no binding | no binding | c-Crk N-terminal SH3 domain (134-191) analogue, dipeptide RI (160-161) replaced by Gly-[COS]-βAla (other, not fully specified; Gly-[COS]-βAla unit (-NH-CH2-CO-S-CH2-CH2-CO-) in place of R160-I161; backbone thioester, Positions count on murine c-Crk; X = -S-CH2CH2-CO- unit; also called Gly-SβAla analogue) AEYVRALFDFNGNDEEDLPFKKGDILGXRDKPEEQWWNAEDSEGKRGMIPVPYVEKYR
6 | no binding |  | c-Crk N-terminal SH3 domain (134-191) analogue, dipeptide ED (149-150) replaced by Gly-[COS]-βAla (other, not fully specified; Gly-[COS]-βAla unit (-NH-CH2-CO-S-CH2-CH2-CO-) in place of E149-D150; backbone thioester, Positions count on murine c-Crk; X = -S-CH2CH2-CO- unit; Tested crude in a pooled array) AEYVRALFDFNGNDEGXLPFKKGDILRIRDKPEEQWWNAEDSEGKRGMIPVPYVEKYR
7 | binds | no binding | c-Crk N-terminal SH3 domain (134-191) analogue, K^164P^165 replaced by Gly-[COS]-βAla (other, not fully specified; Gly-[COS]-βAla unit (-NH-CH2-CO-S-CH2-CH2-CO-) in place of K164-P165; backbone thioester, Positions count on murine c-Crk; X = -S-CH2CH2-CO- unit; also called KP; Gly-SβAla analogue) AEYVRALFDFNGNDEEDLPFKKGDILRIRDGXEEQWWNAEDSEGKRGMIPVPYVEKYR
8 | binds | no binding | c-Crk N-terminal SH3 domain (134-191) analogue, R^162D^163 replaced by Gly-[COS]-βAla (other, not fully specified; Gly-[COS]-βAla unit (-NH-CH2-CO-S-CH2-CH2-CO-) in place of R162-D163; backbone thioester, Positions count on murine c-Crk; X = -S-CH2CH2-CO- unit; also called RD; Gly-SβAla analogue) AEYVRALFDFNGNDEEDLPFKKGDILRIGXKPEEQWWNAEDSEGKRGMIPVPYVEKYR
9 | no binding | no binding | c-Crk N-terminal SH3 domain (134-191) analogue, dipeptide IL (158-159) replaced by Gly-[COS]-βAla (other, not fully specified; Gly-[COS]-βAla unit (-NH-CH2-CO-S-CH2-CH2-CO-) in place of I158-L159; backbone thioester, Positions count on murine c-Crk; X = -S-CH2CH2-CO- unit; also called Gly-SβAla analogue) AEYVRALFDFNGNDEEDLPFKKGDGXRIRDKPEEQWWNAEDSEGKRGMIPVPYVEKYR
10 | binds |  | c-Crk N-terminal SH3 domain (134-191) analogue, D^147E^148 replaced by Gly-[COS]-βAla (other, not fully specified; Gly-[COS]-βAla unit (-NH-CH2-CO-S-CH2-CH2-CO-) in place of D147-E148; backbone thioester, Positions count on murine c-Crk; X = -S-CH2CH2-CO- unit; Tested crude in a pooled array; also called DE) AEYVRALFDFNGNGXEDLPFKKGDILRIRDKPEEQWWNAEDSEGKRGMIPVPYVEKYR
11 | no binding | no binding | c-Crk N-terminal SH3 domain (134-191) analogue, dipeptide DI (157-158) replaced by Gly-[COS]-βAla (other, not fully specified; Gly-[COS]-βAla unit (-NH-CH2-CO-S-CH2-CH2-CO-) in place of D157-I158; backbone thioester, Positions count on murine c-Crk; X = -S-CH2CH2-CO- unit; also called Gly-SβAla analogue) AEYVRALFDFNGNDEEDLPFKKGGXLRIRDKPEEQWWNAEDSEGKRGMIPVPYVEKYR
12 | binds |  | c-Crk N-terminal SH3 domain (134-191) analogue, E^148E^149 replaced by Gly-[COS]-βAla (other, not fully specified; Gly-[COS]-βAla unit (-NH-CH2-CO-S-CH2-CH2-CO-) in place of E148-E149; backbone thioester, Positions count on murine c-Crk; X = -S-CH2CH2-CO- unit; Tested crude in a pooled array) AEYVRALFDFNGNDGXDLPFKKGDILRIRDKPEEQWWNAEDSEGKRGMIPVPYVEKYR
13 | no binding |  | c-Crk N-terminal SH3 domain (134-191) analogue, dipeptide KK (154-155) replaced by Gly-[COS]-βAla (other, not fully specified; Gly-[COS]-βAla unit (-NH-CH2-CO-S-CH2-CH2-CO-) in place of K154-K155; backbone thioester, It is one of the 19 dipeptide positions within c-Crk(146-165); Positions count on murine c-Crk; X = -S-CH2CH2-CO- unit; Tested crude in a pooled array) AEYVRALFDFNGNDEEDLPFGXGDILRIRDKPEEQWWNAEDSEGKRGMIPVPYVEKYR
14 | binds |  | c-Crk N-terminal SH3 domain (134-191) analogue, N^146D^147 replaced by Gly-[COS]-βAla (other, not fully specified; Gly-[COS]-βAla unit (-NH-CH2-CO-S-CH2-CH2-CO-) in place of N146-D147; backbone thioester, Positions count on murine c-Crk; X = -S-CH2CH2-CO- unit; Tested crude in a pooled array; also called ND) AEYVRALFDFNGGXEEDLPFKKGDILRIRDKPEEQWWNAEDSEGKRGMIPVPYVEKYR
15 | no binding | no binding | c-Crk N-terminal SH3 domain (134-191) analogue, dipeptide LR (159-160) replaced by Gly-[COS]-βAla (other, not fully specified; Gly-[COS]-βAla unit (-NH-CH2-CO-S-CH2-CH2-CO-) in place of L159-R160; backbone thioester, Positions count on murine c-Crk; X = -S-CH2CH2-CO- unit; also called Gly-SβAla analogue) AEYVRALFDFNGNDEEDLPFKKGDIGXIRDKPEEQWWNAEDSEGKRGMIPVPYVEKYR

— patent US6495314 (Scripps Research, dated 2002)
